Test results taken from patent publication CN116355095A.
Where two headings read alike, the source gives them in different places.

Experiments:
[1] = biological target: T1, 人TIGIT重组蛋白 (hTIGIT; TIGIT-hFc 或 TIGIT-his) (human) (UniProt Q495A1); assay: ELISA on coated hTIGIT
T1 sequence (looked up): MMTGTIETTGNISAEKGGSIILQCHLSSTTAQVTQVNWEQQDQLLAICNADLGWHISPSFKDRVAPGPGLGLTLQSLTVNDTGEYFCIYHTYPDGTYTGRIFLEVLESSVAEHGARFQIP

[2] = biological target: T1, 人TIGIT重组蛋白 (hTIGIT; TIGIT-hFc 或 TIGIT-his) (human); assay: ELISA on coated hTIGIT; remark: listed apart in the source
[3] = biological target: 恒河猴TIGIT-mFc (rhesus monkey; mouse); assay: ELISA on coated RhTIGIT-mFc
Chain of 恒河猴TIGIT-mFc (rhesus monkey; mouse) (P01863 other isoform, or with tags, fused parts or gaps): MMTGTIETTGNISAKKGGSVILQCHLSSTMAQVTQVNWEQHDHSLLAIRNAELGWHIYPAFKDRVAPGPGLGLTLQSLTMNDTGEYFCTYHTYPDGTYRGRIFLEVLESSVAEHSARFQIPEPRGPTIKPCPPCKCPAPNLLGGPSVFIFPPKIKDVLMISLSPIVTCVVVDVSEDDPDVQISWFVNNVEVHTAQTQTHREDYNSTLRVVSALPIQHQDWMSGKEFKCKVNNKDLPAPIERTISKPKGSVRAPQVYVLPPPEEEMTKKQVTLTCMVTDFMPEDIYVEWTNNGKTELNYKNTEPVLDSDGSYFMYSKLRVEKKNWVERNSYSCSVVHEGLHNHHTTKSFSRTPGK

[4] = biological target: T2, CHO-K1-T1001细胞表达的人TIGIT (human) (UniProt Q495A1); assay: cell ELISA on fixed hTIGIT+ CHO-K1 cells
T2 sequence (looked up): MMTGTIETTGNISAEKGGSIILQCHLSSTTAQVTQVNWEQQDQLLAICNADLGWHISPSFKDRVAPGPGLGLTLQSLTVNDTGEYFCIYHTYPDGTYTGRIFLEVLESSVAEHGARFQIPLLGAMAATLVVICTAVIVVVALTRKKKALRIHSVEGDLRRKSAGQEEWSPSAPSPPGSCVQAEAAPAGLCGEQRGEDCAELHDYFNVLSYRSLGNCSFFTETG

[5] = biological target: T2, CHO-K1-T1001细胞表达的人TIGIT (human); assay: cell ELISA on fixed hTIGIT+ CHO-K1 cells; remark: listed apart in the source
[6] = biological target: 人TIGIT-hFc (human) (UniProt Q495A1); assay: blocking ELISA: Bio-CD155 on coated TIGIT-hFc
[7] = biological target: 人TIGIT-hFc (human) (UniProt Q495A1); assay: blocking ELISA: Bio-CD155 on coated TIGIT-hFc; remark: listed apart in the source

In the case of 阳性对照抗体Ref1 (罗氏RG6058) (antibody), the EC50 [1] is reported as 0.462 nM, the EC50 [2] is reported as 1.13 nM and the EC50 [3] is reported as 0.243 nM. The EC50 [4] was 0.138 nM, the EC50 [5] was 0.0268 nM and the IC50 [6] was 1.19 nM. For the same substance, the IC50 [7] was 3.3 nM.
